Earlier results on one substance are cited in PMC6126569.

“And” between values parts separate entries of the source, which are not always exact repeats. Identical values can stand only once.

As a reminder, the Kd is a measure of binding affinity in units of concentration.

This data set has as its target Bac7 (Bos taurus) (UniProt P19661). The data set can be described thus: SRCD.

Chain of SbmA (P0AFY6 whole entry): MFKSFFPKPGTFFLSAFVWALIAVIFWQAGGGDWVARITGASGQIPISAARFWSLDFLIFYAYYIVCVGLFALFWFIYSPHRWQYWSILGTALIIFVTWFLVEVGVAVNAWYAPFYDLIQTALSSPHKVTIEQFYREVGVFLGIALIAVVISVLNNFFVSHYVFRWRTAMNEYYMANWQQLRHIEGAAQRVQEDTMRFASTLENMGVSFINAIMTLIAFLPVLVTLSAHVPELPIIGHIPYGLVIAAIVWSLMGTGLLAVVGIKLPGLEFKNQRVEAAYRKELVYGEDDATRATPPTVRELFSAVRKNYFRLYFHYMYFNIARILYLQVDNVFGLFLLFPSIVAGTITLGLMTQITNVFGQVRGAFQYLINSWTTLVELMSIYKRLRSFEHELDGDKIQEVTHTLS
Chain of Bac7 (Bos taurus) (P19661 131-189): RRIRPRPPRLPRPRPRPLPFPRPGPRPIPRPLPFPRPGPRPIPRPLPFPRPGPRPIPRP

SbmA (from UniProt P0AFY6): the Kd is 0.26 µM and 0.28 µM.
